Experimental data taken from US20200299400A1 (published 2020).

T1: human CD73 on human cell lines (human, UniProt P21589 27-549)
T1 sequence (looked up): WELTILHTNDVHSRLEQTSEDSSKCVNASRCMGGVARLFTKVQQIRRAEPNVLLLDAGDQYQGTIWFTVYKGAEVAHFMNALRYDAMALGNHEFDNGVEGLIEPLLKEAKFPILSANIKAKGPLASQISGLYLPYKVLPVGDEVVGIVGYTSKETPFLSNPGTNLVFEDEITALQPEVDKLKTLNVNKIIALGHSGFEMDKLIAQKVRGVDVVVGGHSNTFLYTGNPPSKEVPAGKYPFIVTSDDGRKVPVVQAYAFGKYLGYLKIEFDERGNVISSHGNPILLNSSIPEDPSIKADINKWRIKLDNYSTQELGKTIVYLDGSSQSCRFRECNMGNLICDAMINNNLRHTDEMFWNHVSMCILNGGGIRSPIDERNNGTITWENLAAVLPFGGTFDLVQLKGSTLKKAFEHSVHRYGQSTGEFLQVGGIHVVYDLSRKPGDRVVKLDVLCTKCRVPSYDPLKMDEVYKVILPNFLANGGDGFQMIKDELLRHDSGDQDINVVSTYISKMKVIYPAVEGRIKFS


What was measured:
[1] = target: T2, hCD40-Fc (human, UniProt P25942 21-193); experiment: SPR; dAb-Fc analyte on immobilized hCD40-Fc; avidity-influenced KDapparent
T2 construct: Immobilized on the sensor chip; construct not described; not shown: Fc part of hCD40-Fc not described
T2 sequence (P25942 21-193): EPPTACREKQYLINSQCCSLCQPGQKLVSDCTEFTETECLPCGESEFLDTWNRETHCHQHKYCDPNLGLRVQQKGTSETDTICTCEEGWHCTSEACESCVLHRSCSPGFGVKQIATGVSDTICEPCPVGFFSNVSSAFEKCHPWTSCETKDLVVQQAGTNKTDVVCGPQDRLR

[2] = target: T1, human CD73 on human cell lines; experiment: cell-based or functional assay

Binder	Kd [1] [nM]	% internalization, H2228 [2] [%]
3h56-269-IgG1.3f (Fc fusion) EVQLLESGGGLVQPGGSLRLSCAASGFTFRDYEMWWVRQAPGKGLERVSAINPQGTRTYYADSVKGRFTISRDNSKNTLYLQMNSLRAEDTAVYYCAKLPFRFSDRGQGTLVTVSSASTEPKSCDKTHTCPPCPAPEAEGAPSVFLFPPKPKDTLMISRTPEVTCVVVDVSHEDPEVKFNWYVDGVEVHNAKTKPREEQYNSTYRVVSVLTVLHQDWLNGKEYKCKVSNKALPAPIEKTISKAKGQPREPQVYTLPPSREEMTKNQVSLTCLVKGFYPSDIAVEWESNGQPENNYKTTPPVLDSDGSFFLYSKLTVDKSRWQQGNVFSCSVMHEALHNHYTQKSLSLSPGK	< 1	–
3h56-269-IgG1.1f (Fc fusion) EVQLLESGGGLVQPGGSLRLSCAASGFTFRDYEMWWVRQAPGKGLERVSAINPQGTRTYYADSVKGRFTISRDNSKNTLYLQMNSLRAEDTAVYYCAKLPFRFSDRGQGTLVTVSSASTEPKSCDKTHTCPPCPAPEAEGAPSVFLFPPKPKDTLMISRTPEVTCVVVDVSHEDPEVKFNWYVDGVEVHNAKTKPREEQYNSTYRVVSVLTVLHQDWLNGKEYKCKVSNKALPSSIEKTISKAKGQPREPQVYTLPPSREEMTKNQVSLTCLVKGFYPSDIAVEWESNGQPENNYKTTPPVLDSDGSFFLYSKLTVDKSRWQQGNVFSCSVMHEALHNHYTQKSLSLSPGK	< 1	–
CD73.3-IgG1.1 (antibody, V domains shown) VH: EVQLVESGGGLVQPGRSLRLSCAASGFTFDDYAMHWVRQAPGKGLEWVSGISWKSGSIGYADSVKGRFTISRDNAKNSLYLQMNSLRAEDTVLYYCVKGYYVILTGLDYWGQGTLVTVSS VL: not shown	–	47
